B1: Tripartite motif-containing protein 49C, residues 87 to 133; numbered along this chain, P0CI26 (parent)
chain: SSEEQMCGTHRETKKIFCEVDRSLLCLLCSSSQEHRYHRHRPIEWAA

Variants of: B1
Assay: abundance fitness (aPCA) (normalised: wild type 0, dead -1); higher = more abundant; growth selection in yeast, the domain comes from the species named
Conditions: Homo sapiens

Abundance fitness: each site, then its substitutions
D21: G -0.357 | H -0.267 | E -0.142 | C 0.149 | K 0.022 | F -0.562 | I -0.789
R11: Y -1.07 | W -0.36
E19: Y -0.737 | S -0.452 | D -0.297 | Q -0.368 | I -0.5 | M -0.585 | K -0.66 | L -0.651 | N -0.433 | T -0.512 | R -0.602 | G -0.619 | W -0.647 | V -0.586 | A -0.498 | F -0.927 | C -0.255 | P -0.026 | H -0.944
I16: C -0.384 | V -0.129 | A -0.703 | D -0.392 | R -0.497 | K -0.197 | E -0.444 | M -0.107 | Q -0.468 | W -0.28 | G -0.554 | F -0.325 | P -0.574 | H -0.557 | S -0.439 | N -0.677 | L -0.372 | T -0.399 | Y -0.077
T13: L -0.21 | Y -0.277 | R -0.128 | Q 0.148 | N -0.431 | D -0.364 | S -0.081 | E -0.028 | F -0.232 | M 0.242 | V -0.033 | C -0.22 | K -0.224 | P 0.313 | A 0.168 | W -0.436 | G -0.196 | I 0.046 | H 0.006
E12: R 0.021 | K 0.265 | M -0.117 | P -0.671 | A 0.113 | C -0.01 | T 0.047 | D 0.077 | H -0.228 | N -0.797 | V -0.072 | G -0.01 | F -0.035 | Y -0.092 | L 0 | Q 0.066 | W -0.439 | I -0.341
F17: Q -0.653 | G -0.664 | N -0.675 | H -0.598 | C -0.77 | T -0.443 | M -0.062 | I -0.464 | W 0.089 | Y -0.205 | S -0.755 | R -0.356 | D -0.726 | V -0.328 | L -0.081 | K -0.274
V20: T -0.067 | N -0.014 | Y -0.036 | Q 0.052 | H -0.033 | S -0.07 | D 0.164 | E 0.101 | I -0.144 | K 0.161 | L -0.406 | M -0.007 | R -0.026 | C -0.446 | G -0.485 | A 0.141
C18: R -0.736 | A -0.907 | N -0.286 | D -0.669 | T -0.471 | Q -0.731 | H -0.768 | K -0.381 | G -0.821 | L -1.09 | W -0.907 | E -0.333 | Y -0.801 | I -0.783 | S -0.327 | M -0.674 | F -0.802
K14: L -0.247 | R 0.02 | H -0.738 | E -0.173 | T -0.644 | F -0.811 | G -0.518 | N -0.419 | A -0.029 | P -0.431 | D -0.303 | Q -0.328 | C -0.222 | V -0.33 | M -0.199 | W -0.431 | S -0.708
K15: Q -0.264 | C -0.382 | L -0.3 | N 0.201 | D -0.571 | R -0.415 | I -0.327 | F -0.32 | S -0.147 | G -0.265 | E 0.037 | P -0.79 | A -0.337 | W -0.668 | M -0.578 | V -0.408 | T -0.119
